± gives the uncertainty stated by the source.
Assay: self-splicing fitness, log relative to wild type (ln ratio); higher = more splicing; Tetrahymena group I intron in knt gene, E. coli kanamycin selection, DiMSum; sequences stand for … in CUCUCU…GGAGGGAAAAGUUAUCAGGCAUGCACCUGGUAGCUAGUCUUUAAACCAAUAGAUUGCAUCGGUUUAAAAGGCAAGACCGUCAAAUUGCGGGAAAGGGGUCAACAGCCGUUCAGUACCAAGUCUCAGGGGAAACUUUGAGAUGGCCUUGCAAAGGGUAUGGUAAUAAGCUGACGGACAUGGUCCUAACCACGCAGCCAAGUCCUAAGUCAACAGAUCUUCUGUUGAUAUGGAUGCAGUUCACAGACUAAAUGUCGGUCGGGGAAGAUGUAUUCUUCUCAUAAGAUAUAGUCGGACCUCUCCUUAAUGGGAGCUAGCGGAUGAAGUGAUGCAACACUGGAGCCGCUGGGAACUAAUUUGUAUGCGAAAGUAUAUUGAUUAGUUUUGGAGUACUCGUGGUCG
Procedure, shortened: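 Fitness was computed with DiMSum as the error-weighted combination of replicate fold changes, kanamycin versus none, each normalised to wild type. The library randomised all eight intron nucleotides of the P1ex region, with the intron placed in the knt kanamycin-resistance gene on pET-22b(+) in E. coli BL21(DE3). Six replicate transformations were grown overnight at 37°C or 30°C on LB agar with or without 25 μg/mL kanamycin, plus 100 μg/mL carbenicillin, 50 μM IPTG and 0.2% rhamnose. Pooled colonies were amplicon-sequenced on an Illumina HiSeq 2500.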

Sequence | self-splicing fitness (ln) (30 °C) | self-splicing fitness (ln) (37 °C)
AUGAAGCAAUAUUACGUUUG | -2.28 ± 0.11 | -1.56 ± 0.13
CUUAAGCAAUAUUACGGAAG | -2.03 ± 0.17 | -0.419 ± 0.14
UGGAAGCAAUAUUACGAAAG | -1.72 ± 0.16 | -0.893 ± 0.2
AUGAAGCAAUAUUACGAAUC | -1.68 ± 0.23 | –
UUUUAGCAAUAUUACGCCUU | -1.74 ± 0.34 | -0.968 ± 0.22
UGACAGCAAUAUUACGCCCC | -0.414 ± 0.17 | -0.391 ± 0.26
CAGUAGCAAUAUUACGGUGG | -0.646 ± 0.06 | -0.131 ± 0.09
AACGAGCAAUAUUACGCCCU | -1.66 ± 0.12 | -0.745 ± 0.17
CGCUAGCAAUAUUACGUAUG | -1.27 ± 0.066 | -0.236 ± 0.09
AUCUAGCAAUAUUACGAGCG | -1.87 ± 0.12 | -1.25 ± 0.15
GGCUAGCAAUAUUACGUACA | -1.07 ± 0.12 | -0.185 ± 0.11
UCGAAGCAAUAUUACGGUCA | -1.83 ± 0.11 | -0.525 ± 0.12
CACGAGCAAUAUUACGGACG | -1.34 ± 0.075 | -0.15 ± 0.1
AGUGAGCAAUAUUACGCUGU | -3.12 ± 0.25 | -1.64 ± 0.18
AAGAAGCAAUAUUACGAUAU | -1.66 ± 0.11 | -0.399 ± 0.12
UACAAGCAAUAUUACGUGCU | -3.34 ± 0.16 | -2.22 ± 0.13
UUAAAGCAAUAUUACGCUUG | -0.897 ± 0.096 | 0.0122 ± 0.12
UGGGAGCAAUAUUACGAAGU | – | -1.21 ± 0.3
AUGCAGCAAUAUUACGCAGG | -3.71 ± 0.14 | -2.13 ± 0.12
GCCUAGCAAUAUUACGAGUA | -1.7 ± 0.093 | -1.88 ± 0.085

Sequence | self-splicing fitness (ln) (30 °C) | self-splicing fitness (ln) (37 °C)
UGAGAGCAAUAUUACGACUA | -1.47 ± 0.22 | -1.64 ± 0.21
GAACAGCAAUAUUACGGUAG | -2.81 ± 0.12 | -1.87 ± 0.14
CGAUAGCAAUAUUACGCGAU | -3.09 ± 0.18 | -2.6 ± 0.29
UUCGAGCAAUAUUACGCUCC | -3.27 ± 0.41 | –
GGAGAGCAAUAUUACGAUGC | -2.8 ± 0.33 | -0.975 ± 0.22
UCAGAGCAAUAUUACGAGCA | – | -2.06 ± 0.48
GUAAAGCAAUAUUACGUAGC | -2.6 ± 0.11 | -0.771 ± 0.097
GGUAAGCAAUAUUACGUCGU | -1 ± 0.11 | -0.732 ± 0.12
CUUCAGCAAUAUUACGGAAC | -2.45 ± 0.16 | -2.12 ± 0.33
CCGGAGCAAUAUUACGGAAG | -2.73 ± 0.11 | -2.21 ± 0.14
CUCCAGCAAUAUUACGUUGA | -2.56 ± 0.18 | -2.87 ± 0.19
CGCUAGCAAUAUUACGCGUG | -2.8 ± 0.13 | -1.77 ± 0.12
AAAGAGCAAUAUUACGGCUA | -1.28 ± 0.11 | -1.13 ± 0.13
GUAUAGCAAUAUUACGGGGG | -3.63 ± 0.37 | -2.53 ± 0.48
CUAGAGCAAUAUUACGCUUC | -2.21 ± 0.42 | -1.97 ± 0.3
GCAAAGCAAUAUUACGUAAC | -1.67 ± 0.12 | -0.338 ± 0.15
UCUUAGCAAUAUUACGUUCU | – | -2.75 ± 0.21
AUGUAGCAAUAUUACGUACG | -1.41 ± 0.1 | -0.212 ± 0.13
GGCGAGCAAUAUUACGUGGU | -4.31 ± 0.27 | -1.77 ± 0.16
